B1: Proto-oncogene tyrosine-protein kinase LCK (Mus musculus), P06240 (parent)
chain: MGCVCSSNPEDDWMENIDVCENCHYPIVPLDSKISLPIRNGSEVRDPLVTYEGSLPPASPLQDNLVIALHSYEPSHDGDLGFEKGEQLRILEQSGEWWKAQSLTTGQEGFIPFNFVAKANSLEPEPWFFKNLSRKDAERQLLAPGNTHGSFLIRESESTAGSFSLSVRDFDQNQGEVVKHYKIRNLDNGGFYISPRITFPGLHDLVRHYTNASDGLCTKLSRPCQTQKPQKPWWEDEWEVPRETLKLVERLGAGQFGEVWMGYYNGHTKVAVKSLKQGSMSPDAFLAEANLMKQLQHPRLVRLYAVVTQEPIYIITEYMENGSLVDFLKTPSGIKLNVNKLLDMAAQIAEGMAFIEEQNYIHRDLRAANILVSDTLSCKIADFGLARLIEDNEYTAREGAKFPIKWTAPEAINYGTFTIKSDVWSFGILLTEIVTHGRIPYPGMTNPEVIQNLERGYRMVRPDNCPEELYHLMMLCWKERPEDRPTFDYLRSVLDDFFTATEGQYQPQP

Variants of: B1
Details: with cd4_mouse Cd4, P06332
Sequence of cd4_mouse Cd4, P06332 (P06332 whole entry): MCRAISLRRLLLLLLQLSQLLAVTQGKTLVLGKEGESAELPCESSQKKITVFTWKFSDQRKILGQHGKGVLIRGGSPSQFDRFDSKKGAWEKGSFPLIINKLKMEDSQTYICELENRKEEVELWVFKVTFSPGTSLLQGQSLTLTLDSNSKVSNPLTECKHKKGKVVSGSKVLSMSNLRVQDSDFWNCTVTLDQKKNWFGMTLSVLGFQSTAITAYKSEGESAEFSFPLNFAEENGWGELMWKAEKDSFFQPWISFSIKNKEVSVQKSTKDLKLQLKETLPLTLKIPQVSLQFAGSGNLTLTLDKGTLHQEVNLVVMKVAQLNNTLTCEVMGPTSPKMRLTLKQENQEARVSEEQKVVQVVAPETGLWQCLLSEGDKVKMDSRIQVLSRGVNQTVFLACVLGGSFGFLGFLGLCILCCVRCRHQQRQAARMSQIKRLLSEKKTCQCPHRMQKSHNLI

Variant	effect of a mutation on the interaction
C20A;C23A	disrupting interaction strength

Variants of: B1
Details: with cd8a_mouse Cd8a

Variant	effect of a mutation on the interaction
C20A;C23A	disrupting interaction strength

— IntAct's records for PubMed 24034254
